Experimental data: PMC8752480 (Journal of molecular biology, 2021)

B1: precursor of protein IIIa (pIIIa) of HAdV-C5 in the Ad5F35-ts1 virion (natural protein)
chain: MMQDATDPAVRAALQSQPSGLNSTDDWRQVMDRIMSLTARNPDAFRQQPQANRLSAILEAVVPARANPTHEKVLAIVNALAENRAIRPDEAGLVYDALLQRVARYNSGNVQTNLDRLVGDVREAVAQRERAQQQGNLGSMVALNAFLSTQPANVPRGQEDYTNFVSALRLMVTETPQSEVYQSGPDYFFQTSRQGLQTVNLSQAFKNLQGLWGVRAPTGDRATVSSLLTPNSRLLLLLIAPFTDSGSVSRDTYLGHLLTLYREAIGQAHVDEHTFQEITSVSRALGQEDTGSLEATLNYLLTNRRQKIPSLHSLNSEEERILRYVQQSVSLNLMRDGVTPSVALDMTARNMEPGMYASNRPFINRLMDYLHRAAAVNPEYFTNAILNPHWLPPPGFYTGGFEVPEGNDGFLWDDIDDSVFSPQPQTLLELQQREQAEAALRKESFRRPSSLSDLGAAAPRSDASSPFPSLIGSLTSTRTTRPRLLGEEEYLNNSLLQPQREKNLPPAFPNNGIESLVDKMSRWKTYAQEHRDVPGPRPPTRRQRHDRQRGLVWEDDDSADDSSVLDLGGSGNPFAHLRPRLGRMF
B2: precursor of protein VIII (pVIII) of HAdV-C5 in the Ad5F35-ts1 virion (natural protein)
chain: MSKEIPTPYMWSYQPQMGLAAGAAQDYSTRINYMSAGPHMISRVNGIRAHRNRILLEQAAITTTPRNNLNPRSWPAALVYQESPAPTTVVLPRDAQAEVQMTNSGAQLAGGFRHRVRSPGQGITHLTIRGRGIQLNDESVSSSLGLRPDGTFQIGGAGRPSFTPRQAILTLQTSSSEPRSGGIGTLQFIEEFVPSVYFNPFSGPPGHYPDQFIPNFDAVKDSADGYD
B3: protein IX of HAdV-C5 in the Ad5F35-ts1 virion (natural protein)
chain: MSTNSFDGSIVSSYLTTRMPPWAGVRQNVMGSSIDGRPVLPANSTTLTYETVSGTPLETAASAAASAAAATARGIVTDFAFLSPLASSAASRSSARDDKLTALLAQLDSLTRELNVVSQQLLDLRQQVSALKASSPPNAV
B4: precursor of protein VI (pVI) of HAdV-C5 in the Ad5F35-ts1 virion (natural protein)
chain: MEDINFASLAPRHGSRPFMGNWQDIGTSNMSGGAFSWGSLWSGIKNFGSTVKNYGSKAWNSSTGQMLRDKLKEQNFQQKVVDGLASGISGVVDLANQAVQNKINSKLDPRPPVEEPPPAVETVSPEGRGEKRPRPDREETLVTQIDEPPSYEEALKQGLPTTRPIAPMATGVLGQHTPVTLDLPPPADTQQKPVLPGPTAVVVTRPSRASLRRAASGPRSLRPVASGNWQSTLNSIVGLGVQSLKRRRCF
B5: hexon (major capsid protein) of HAdV-C5 in the Ad5F35-ts1 virion (natural protein)
chain: MATPSMMPQWSYMHISGQDASEYLSPGLVQFARATETYFSLNNKFRNPTVAPTHDVTTDRSQRLTLRFIPVDREDTAYSYKARFTLAVGDNRVLDMASTYFDIRGVLDRGPTFKPYSGTAYNALAPKGAPNPCEWDEAATALEINLEEEDDDNEDEVDEQAEQQKTHVFGQAPYSGINITKEGIQIGVEGQTPKYADKTFQPEPQIGESQWYETEINHAAGRVLKKTTPMKPCYGSYAKPTNENGGQGILVKQQNGKLESQVEMQFFSTTEATAGNGDNLTPKVVLYSEDVDIETPDTHISYMPTIKEGNSRELMGQQSMPNRPNYIAFRDNFIGLMYYNSTGNMGVLAGQASQLNAVVDLQDRNTELSYQLLLDSIGDRTRYFSMWNQAVDSYDPDVRIIENHGTEDELPNYCFPLGGVINTETLTKVKPKTGQENGWEKDATEFSDKNEIRVGNNFAMEINLNANLWRNFLYSNIALYLPDKLKYSPSNVKISDNPNTYDYMNKRVVAPGLVDCYINLGARWSLDYMDNVNPFNHHRNAGLRYRSMLLGNGRYVPFHIQVPQKFFAIKNLLLLPGSYTYEWNFRKDVNMVLQSSLGNDLRVDGASIKFDSICLYATFFPMAHNTASTLEAMLRNDTNDQSFNDYLSAANMLYPIPANATNVPISIPSRNWAAFRGWAFTRLKTKETPSLGSGYDPYYTYSGSIPYLDGTFYLNHTFKKVAITFDSSVSWPGNDRLLTPNEFEIKRSVDGEGYNVAQCNMTKDWFLVQMLANYNIGYQGFYIPESYKDRMYSFFRNFQPMSRQVVDDTKYKDYQQVGILHQHNNSGFVGYLAPTMREGQAYPANFPYPLIGKTAVDSITQKKFLCDRTLWRIPFSSNFMSMGALTDLGQNLLYANSAHALDMTFEVDPMDEPTLLYVLFEVFDVVRVHRPHRGVIETVYLRTPFSAGNATT
B6: penton base of HAdV-C5 in the Ad5F35-ts1 virion (natural protein)
chain: MRRAAMYEEGPPPSYESVVSAAPVAAALGSPFDAPLDPPFVPPRYLRPTGGRNSIRYSELAPLFDTTRVYLVDNKSTDVASLNYQNDHSNFLTTVIQNNDYSPGEASTQTINLDDRSHWGGDLKTILHTNMPNVNEFMFTNKFKARVMVSRLPTKDNQVELKYEWVEFTLPEGNYSETMTIDLMNNAIVEHYLKVGRQNGVLESDIGVKFDTRNFRLGFDPVTGLVMPGVYTNEAFHPDIILLPGCGVDFTHSRLSNLLGIRKRQPFQEGFRITYDDLEGGNIPALLDVDAYQASLKDDTEQGGGGAGGSNSSGSGAEENSNAAAAAMQPVEDMNDHAIRGDTFATRAEEKRAEAEAAAEAAAPAAQPEVEKPQKKPVIKPLTEDSKKRSYNLISNDSTFTQYRSWYLAYNYGDPQTGIRSWTLLCTPDVTCGSEQVYWSLPDMMQDPVTFRSTRQISNFPVVGAELLPVHSKSFYNDQAVYSQLIRQFTSLTHVFNRFPENQILARPPAPTITTVSENVPALTDHGTLPLRNSIGGVQRVTITDARRRTCPYVYKALGIVSPRVLSSRTF

Columns and labels:
[…] = target: the molecule itself; test: […]
[1] = target: B5; test: […]

## B1
[…]
  binding result: binds
[1]
  binding result: binds

## B2
[1]
  binding result: binds

## B3
[1]
  binding result: binds

## B4
[1]
  binding result: binds

## B5
[…]
  binding result: binds

## B6
[…]
  binding result: binds
[1]
  binding result: binds
